Patent US20070298494A1 (KANSAS STATE UNIVERSITY RESEARCH FOUNDATION, published 2007)

B1: C-K4-M2GlyR (peptide)
peptide: PARVGLGITTVLTMTTQSSGSRAKKKK
notes: Synthetic peptide; tested for association with itself in solution by BS3 cross-linking and SDS-PAGE; also called CK4ALB
B2: NK4A'Wa' (peptide)
peptide: KKKKAARVGLGITTVWVTTIGLGVRAA
notes: Synthetic peptide; tested for association with itself in solution by BS3 cross-linking and SDS-PAGE
B3: N-K4-M2GlyR (peptide)
peptide: KKKKPARVGLGITTVLTMTTQSSGSRA
notes: Synthetic peptide; tested for association with itself in solution by BS3 cross-linking and SDS-PAGE; also called NK4ALB

Molecular target: the molecule itself
Assay: BS3 chemical cross-linking in solution, SDS-PAGE, silver stain; association of the peptide with itself
Protocol: In order to visualize the oligomeric state of the peptide in solution a chemical cross-linking protocol was developed. Calculated amounts of each peptide were weighted out and dissolved in 1 mL of distilled water to make 1 mM stock solutions. A 100 mM stock solution of the chemical crosslinking reagent Bis[Sulfosuccinimidyl]suberate, BS³, (Pierce Chemical Co., Rockford, Ill.) was prepared in dimethyl sulfoxide (DMSO). In typical reactions, 5-30 μL of 1.0 mM stock solution of peptide are added to 64-94 μL of 10 mM HEPES buffer, pH 8.1 to give a range of concentrations starting at 50 μM rising up to 300 μM. Sample were allowed to sit at room temperature for 15 minutes. 1-6 μL of 100 mM BS³ was then added to the previously prepared peptide such that the crosslinking reagent was present in 20-fold excess. The final volume for each reaction was 100 μL. After reacting for 30 minutes, the reaction was stopped with the addition of 10 μL 1.0 N HCl. Each sample was then vacuum dried. Later dry samples were re-dissolved in 60 μL of distilled water along with 60 μL of a 2×-tricine SDS sample buffer (Novex, San Diego). All samples were then boiled at 100° C. for 5 minutes. 5 μL aliquots of each SDS boiled sample was then loaded into separate lanes of pre-cast, 1.0 mm, 10 well, 10-20% tricine gels (Novex, San Diego). Pre-made Novex tricine-SDS buffer was used in the electrophoresis. The reference well contained 1 μL of MultiMark® multi-colored molecular weight standard (Novex, San Diego). The electrophoresis was carried out at a constant 110 Volts for 90 minutes. The gel was then fixed in 40% methanol in water and the cross-linked peptides visualized using silver staining (SilverXpress® silver staining kit, Invitrogen, Carlsbad, Calif.).
B1: binds. B2: no binding. B3: binds.
